Measured values from patent US20050100551A1.

Experiments:
Herceptin [1] = assay: inhibition ELISA: herceptin preincubated with KLH alone, binding to SKBR3 membranes (Her-2/neu)
Herceptin [2] = assay: inhibition ELISA: herceptin preincubated with wild-type phage, binding to SKBR3 membranes (Her-2/neu)

Substance: KLH (from UniProt Q10583 17-3414)
- Percent inhibition in comparison to uninhibited herceptin control (Herceptin [1]): 0%

Substance: Wild-type phage
- Percent inhibition in comparison to uninhibited herceptin control (Herceptin [2]): 3%
